Experimental data published in publication PMC12416549 (2024).

T1: TNFR1 (Homo sapiens, UniProt P19438)
T1 chain: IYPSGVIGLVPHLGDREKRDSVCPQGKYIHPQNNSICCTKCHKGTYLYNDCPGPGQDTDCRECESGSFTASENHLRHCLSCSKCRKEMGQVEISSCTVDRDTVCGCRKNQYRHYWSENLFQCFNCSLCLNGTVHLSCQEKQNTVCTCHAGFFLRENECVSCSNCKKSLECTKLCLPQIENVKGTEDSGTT


Target: T1, TNFR1
Experiment: yeast display SC50

apparent Kd (screen) | Binder
1.16 nM | V95N (designed binder) SMEEEVEKAAKEYEKKKKEAIEKHLEKLKAKDKEAAERFLKELEEAAKEYAKDEAKTMSEEEAKRRAKKYKEKVLLSELSEEEQKEIKEAEEKLNRTILKYVEEAAK
0.446 nM | V102G (designed binder) SMEEEVEKAAKEYEKKKKEAIEKHLEKLKAKDKEAAERFLKELEEAAKEYAKDEAKTMSEEEAKRRAKKYKEKVLLSELSEEEQKEIKEAEEKLVRTILKYGEEAAK
0.593 nM | A90T (designed binder) SMEEEVEKAAKEYEKKKKEAIEKHLEKLKAKDKEAAERFLKELEEAAKEYAKDEAKTMSEEEAKRRAKKYKEKVLLSELSEEEQKEIKETEEKLVRTILKYVEEAAK
16.7 nM | L94P (designed binder) SMEEEVEKAAKEYEKKKKEAIEKHLEKLKAKDKEAAERFLKELEEAAKEYAKDEAKTMSEEEAKRRAKKYKEKVLLSELSEEEQKEIKEAEEKPVRTILKYVEEAAK
11.4 nM | L76G (designed binder) SMEEEVEKAAKEYEKKKKEAIEKHLEKLKAKDKEAAERFLKELEEAAKEYAKDEAKTMSEEEAKRRAKKYKEKVLGSELSEEEQKEIKEAEEKLVRTILKYVEEAAK
0.79 nM | D32N (designed binder) SMEEEVEKAAKEYEKKKKEAIEKHLEKLKAKNKEAAERFLKELEEAAKEYAKDEAKTMSEEEAKRRAKKYKEKVLLSELSEEEQKEIKEAEEKLVRTILKYVEEAAK
12.5 nM | E14G (designed binder) SMEEEVEKAAKEYGKKKKEAIEKHLEKLKAKDKEAAERFLKELEEAAKEYAKDEAKTMSEEEAKRRAKKYKEKVLLSELSEEEQKEIKEAEEKLVRTILKYVEEAAK
2.05 nM | T57N (designed binder) SMEEEVEKAAKEYEKKKKEAIEKHLEKLKAKDKEAAERFLKELEEAAKEYAKDEAKNMSEEEAKRRAKKYKEKVLLSELSEEEQKEIKEAEEKLVRTILKYVEEAAK
11.4 nM | E54G (designed binder) SMEEEVEKAAKEYEKKKKEAIEKHLEKLKAKDKEAAERFLKELEEAAKEYAKDGAKTMSEEEAKRRAKKYKEKVLLSELSEEEQKEIKEAEEKLVRTILKYVEEAAK
1.05 nM | E12D (designed binder) SMEEEVEKAAKDYEKKKKEAIEKHLEKLKAKDKEAAERFLKELEEAAKEYAKDEAKTMSEEEAKRRAKKYKEKVLLSELSEEEQKEIKEAEEKLVRTILKYVEEAAK
11.4 nM | R65Y (designed binder) SMEEEVEKAAKEYEKKKKEAIEKHLEKLKAKDKEAAERFLKELEEAAKEYAKDEAKTMSEEEAKYRAKKYKEKVLLSELSEEEQKEIKEAEEKLVRTILKYVEEAAK
0.79 nM | K31N (designed binder) SMEEEVEKAAKEYEKKKKEAIEKHLEKLKANDKEAAERFLKELEEAAKEYAKDEAKTMSEEEAKRRAKKYKEKVLLSELSEEEQKEIKEAEEKLVRTILKYVEEAAK
3 nM | E89I (designed binder) SMEEEVEKAAKEYEKKKKEAIEKHLEKLKAKDKEAAERFLKELEEAAKEYAKDEAKTMSEEEAKRRAKKYKEKVLLSELSEEEQKEIKIAEEKLVRTILKYVEEAAK
0.593 nM | A30M (designed binder) SMEEEVEKAAKEYEKKKKEAIEKHLEKLKMKDKEAAERFLKELEEAAKEYAKDEAKTMSEEEAKRRAKKYKEKVLLSELSEEEQKEIKEAEEKLVRTILKYVEEAAK
7.78 nM | K29P (designed binder) SMEEEVEKAAKEYEKKKKEAIEKHLEKLPAKDKEAAERFLKELEEAAKEYAKDEAKTMSEEEAKRRAKKYKEKVLLSELSEEEQKEIKEAEEKLVRTILKYVEEAAK
1.86 nM | E61W (designed binder) SMEEEVEKAAKEYEKKKKEAIEKHLEKLKAKDKEAAERFLKELEEAAKEYAKDEAKTMSEWEAKRRAKKYKEKVLLSELSEEEQKEIKEAEEKLVRTILKYVEEAAK
22.2 nM | A67C (designed binder) SMEEEVEKAAKEYEKKKKEAIEKHLEKLKAKDKEAAERFLKELEEAAKEYAKDEAKTMSEEEAKRRCKKYKEKVLLSELSEEEQKEIKEAEEKLVRTILKYVEEAAK
1.05 nM | E22C (designed binder) SMEEEVEKAAKEYEKKKKEAICKHLEKLKAKDKEAAERFLKELEEAAKEYAKDEAKTMSEEEAKRRAKKYKEKVLLSELSEEEQKEIKEAEEKLVRTILKYVEEAAK

apparent Kd (screen) | Binder
0.593 nM | A90C (designed binder) SMEEEVEKAAKEYEKKKKEAIEKHLEKLKAKDKEAAERFLKELEEAAKEYAKDEAKTMSEEEAKRRAKKYKEKVLLSELSEEEQKEIKECEEKLVRTILKYVEEAAK
1.05 nM | K107S (designed binder) SMEEEVEKAAKEYEKKKKEAIEKHLEKLKAKDKEAAERFLKELEEAAKEYAKDEAKTMSEEEAKRRAKKYKEKVLLSELSEEEQKEIKEAEEKLVRTILKYVEEAAS
2.73 nM | S77V (designed binder) SMEEEVEKAAKEYEKKKKEAIEKHLEKLKAKDKEAAERFLKELEEAAKEYAKDEAKTMSEEEAKRRAKKYKEKVLLVELSEEEQKEIKEAEEKLVRTILKYVEEAAK
1.54 nM | K100E (designed binder) SMEEEVEKAAKEYEKKKKEAIEKHLEKLKAKDKEAAERFLKELEEAAKEYAKDEAKTMSEEEAKRRAKKYKEKVLLSELSEEEQKEIKEAEEKLVRTILEYVEEAAK
4.39 nM | R96E (designed binder) SMEEEVEKAAKEYEKKKKEAIEKHLEKLKAKDKEAAERFLKELEEAAKEYAKDEAKTMSEEEAKRRAKKYKEKVLLSELSEEEQKEIKEAEEKLVETILKYVEEAAK
0.718 nM | E22Q (designed binder) SMEEEVEKAAKEYEKKKKEAIQKHLEKLKAKDKEAAERFLKELEEAAKEYAKDEAKTMSEEEAKRRAKKYKEKVLLSELSEEEQKEIKEAEEKLVRTILKYVEEAAK
2.25 nM | A106L (designed binder) SMEEEVEKAAKEYEKKKKEAIEKHLEKLKAKDKEAAERFLKELEEAAKEYAKDEAKTMSEEEAKRRAKKYKEKVLLSELSEEEQKEIKEAEEKLVRTILKYVEEALK
0.869 nM | E86M (designed binder) SMEEEVEKAAKEYEKKKKEAIEKHLEKLKAKDKEAAERFLKELEEAAKEYAKDEAKTMSEEEAKRRAKKYKEKVLLSELSEEEQKMIKEAEEKLVRTILKYVEEAAK
1.86 nM | E3A (designed binder) SMAEEVEKAAKEYEKKKKEAIEKHLEKLKAKDKEAAERFLKELEEAAKEYAKDEAKTMSEEEAKRRAKKYKEKVLLSELSEEEQKEIKEAEEKLVRTILKYVEEAAK
0.49 nM | Y13S (designed binder) SMEEEVEKAAKESEKKKKEAIEKHLEKLKAKDKEAAERFLKELEEAAKEYAKDEAKTMSEEEAKRRAKKYKEKVLLSELSEEEQKEIKEAEEKLVRTILKYVEEAAK
1.4 nM | A47N (designed binder) SMEEEVEKAAKEYEKKKKEAIEKHLEKLKAKDKEAAERFLKELEEANKEYAKDEAKTMSEEEAKRRAKKYKEKVLLSELSEEEQKEIKEAEEKLVRTILKYVEEAAK
0.446 nM | E5G (designed binder) SMEEGVEKAAKEYEKKKKEAIEKHLEKLKAKDKEAAERFLKELEEAAKEYAKDEAKTMSEEEAKRRAKKYKEKVLLSELSEEEQKEIKEAEEKLVRTILKYVEEAAK
0.653 nM | S1G (designed binder) GMEEEVEKAAKEYEKKKKEAIEKHLEKLKAKDKEAAERFLKELEEAAKEYAKDEAKTMSEEEAKRRAKKYKEKVLLSELSEEEQKEIKEAEEKLVRTILKYVEEAAK
0.869 nM | K41G (designed binder) SMEEEVEKAAKEYEKKKKEAIEKHLEKLKAKDKEAAERFLGELEEAAKEYAKDEAKTMSEEEAKRRAKKYKEKVLLSELSEEEQKEIKEAEEKLVRTILKYVEEAAK
0.539 nM | E37D (designed binder) SMEEEVEKAAKEYEKKKKEAIEKHLEKLKAKDKEAADRFLKELEEAAKEYAKDEAKTMSEEEAKRRAKKYKEKVLLSELSEEEQKEIKEAEEKLVRTILKYVEEAAK
0.869 nM | R65K (designed binder) SMEEEVEKAAKEYEKKKKEAIEKHLEKLKAKDKEAAERFLKELEEAAKEYAKDEAKTMSEEEAKKRAKKYKEKVLLSELSEEEQKEIKEAEEKLVRTILKYVEEAAK
6.43 nM | E44P (designed binder) SMEEEVEKAAKEYEKKKKEAIEKHLEKLKAKDKEAAERFLKELPEAAKEYAKDEAKTMSEEEAKRRAKKYKEKVLLSELSEEEQKEIKEAEEKLVRTILKYVEEAAK
